Data from paper doi:10.1101/2020.05.28.122556.
pKd: −log10 of the molar value.

Experiments:
[1] = biological target: EED (amino acids 40-441) (human) (UniProt O75530); test: fluorescence polarisation
[2] = biological target: 5-carboxyfluorescein (5-FAM, single isomer) labelled JARID2-K116me3 peptide; test: fluorescence polarisation

Sequence of EED (amino acids 40-441) (human) (O75530 40-441): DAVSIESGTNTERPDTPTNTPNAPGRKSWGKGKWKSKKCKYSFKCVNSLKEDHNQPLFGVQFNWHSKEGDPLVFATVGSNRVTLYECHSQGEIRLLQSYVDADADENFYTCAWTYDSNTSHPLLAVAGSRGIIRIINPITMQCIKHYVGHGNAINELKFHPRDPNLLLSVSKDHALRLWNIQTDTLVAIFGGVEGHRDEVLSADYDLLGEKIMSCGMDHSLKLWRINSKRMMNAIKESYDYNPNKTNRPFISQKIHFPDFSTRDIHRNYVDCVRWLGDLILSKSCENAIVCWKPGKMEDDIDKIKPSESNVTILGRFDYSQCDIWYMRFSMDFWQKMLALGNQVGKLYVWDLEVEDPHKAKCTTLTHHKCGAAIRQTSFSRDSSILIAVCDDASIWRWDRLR
Sequence of EED (amino acids 40-441) (O75530 40-441): as above

| Substance | pKd [1] | further results |
| --- | --- | --- |
| PALI1-K1214me3 peptide | – | fold lower affinity than PALI1-K1219me3 and PALI1-K1241me3 [1]: 4 fold |
| EED (amino acids 40-441) (from UniProt O75530-1 40-441) (domain or fragment) | – | pKd [2]: 5.09 |
| PALI1-K1219me3 peptide | 5.12 | – |
| H3K27me3 peptide | 4.38 | – |
| PALI1-K1241me3 peptide | 5.07 | – |
| PALI1-K1241me2 peptide | 4.73 | – |
| PALI1-K1241me1 peptide | 3.62 | – |
